The nature of series [1]: In vivo pharmacokinetic study of NC2st administered IV or SC in C57BL/6 mice. The note with it: male mice; for AUClast: 20 mg/kg single dose, serum. The protocol:
NC2st was formulated at a concentration of 5.79 mg/mL in 25 mM sodium phosphate pH 7.4, 150 mM NaCl. The animals received NC2st as a single IV or SC dose (20 mg/kg) as described in Table 3 below. Injections were scheduled between 7:00 and 10:15 AM. Each mouse was injected with test article subcutaneously into the scapular region or immobilized in a rodent restrainer and injected with the test article as an intravenous bolus via the caudal vein. […] The animals received only one dose before scheduled blood collection and sacrifice. Individual body weights were assessed before scheduled test article injection and the volume of test article administered was based on body weight determination. Blood samples (0.1 to 0.12 mL) were collected via a jugular vein under isoflurane anesthesia at different time points. At the last time point, blood samples were collected by cardiac puncture under isoflurane anesthesia. Blood samples were collected into Microvette 200Z/gel tube (Sarstedt, serum/gel clotting activator, #20.1291), incubated at room temperature for 30 to 60 minutes, and centrifuged at 10,000×g for five minutes at 2-8° C. Serum was then transferred into a fresh 0.5 mL tube (Sarstedt, #72.699), snap-frozen in liquid nitrogen, and stored at -80° C. until analysis. […] Formulated NC2st protein spiked in serum served as a standard. Pharmacokinetic profiles were derived from the concentration measured by EIA. A non-compartmental analysis (NCA) was used to calculate the pharmacokinetic parameters of testing compound. […] NCA Model 200 was selected for extravascular input or Model 201 for IV-Bolus input using sparse sampling analysis module for both models. The following non-compartmental PK parameters were calculated: • Area under the curve from time zero to the last detectable concentration (AUClast), calculated using the linear trapezoidal (linear interpolation); • Area under the curve from time zero to infinity (AUC∞) calculated [NT]λz (where λz=slope of the terminal phase of the serum concentration vs time curve); • Maximum observed serum concentration (Cmax), time of maximum serum concentration (Tmax); • Terminal elimination half-life (T1/2, calculated as 0.693/λz); • Systemic clearance (CL) was calculated as Dose/AUC∞ and • Total volume of distribution (Vss) was calculated using CL×MRT, where MRT is the mean residence time. Absolute bioavailability (F %) between routes was calculated using the following formula: [AUC∞ (sc)/Dose(sc)]/[AUC∞ (iv)/Dose(iv)]×100. Nominal times were used in the calculations and times are set relative to start of dosing. Nominal doses were used for the calculation of CL.

A short description of series [2]: Active NC2st concentration in serum of treated Fgfr3^369/+ mice (cGMP assay). Format: in vivo. The note with it: 13-18 hours after the last dose. How it is done:
At necropsy (Day 64), blood samples were collected by cardiac puncture under isoflurane anesthesia 13-18 hours after the last dose. Blood samples were collected into Microvette 500Z/gel tube (Sarstedt, serum/gel clotting activator, #20.1344), incubated at room temperature for 30 to 60 minutes and centrifuged at 10,000×g for five minutes at 2-8° C. 100 μl of serum was then transferred into 0.5 mL tubes (Sarstedt, #72.699), and the remainder was transferred in a second tube. The two tubes were frozen in liquid nitrogen and stored at −80° C. until analysis.

“NC2st: Fc-CNP fusion: Strep-tag II, TEV site, human IgG-1 Fc, 16-amino acid glycine-rich linker, CNP22; SEQ ID NO: 502”: in series [1] (IV, 20 mg/kg), the “AUC∞” value is reported as 28,563 hr · nmol/L, the CL is 0.187 mL/min/kg, the Cmax is 2100 nM and the Half-life came out at 10.6 h. In series [1] (IV, 20 mg/kg), the Tmax was found to be 1.00 h and the Vss is listed as 0.173 L/kg. Moreover, the AUClast in series [1] (IV) is on record as 27,587 hr · nmol/L. For the same substance, in series [1] (SC), the “increase of SC half-life over intravenous CNP22” value is given as “approximately 340 fold” and the AUClast is 17,735 hr · nmol/L. Moreover, the Bioavailability in series [1] (SC vs IV, 20 mg/kg) is on record as 68.5%. Further, in series [1] (SC, 20 mg/kg), the “AUC∞” value is recorded as 19,592 hr · nmol/L, the CL_F amounted to 0.272 mL/min/kg, the Cmax was determined as 798 nM and the Half-life turned out to be 14.3 h. In addition, in series [1] (SC, 20 mg/kg), the Tmax came to 6.00 h and the Vss_F came to 0.353 L/kg. Further, the “mean NC2st blood serum level (active concentration)” value in series [2] (Tx10 group) is listed as “above the projected threshold for 50% reversal of the ACH phenotype”. Besides, the “mean NC2st blood serum level (active concentration)” value in series [2] (Tx100 group) is on record as “nearly three-fold above the projected threshold for 100% reversal”.

Source of the values: US9266939B2, “Compositions comprising natriuretic peptides and methods of use thereof” (Alexion Pharmaceuticals, Inc., priority 2010, dated 2016).
